Patent publication US20140087995A1 (published 2014)
Numbered stars: 1 amine (or outer) side, 2 acyl side, 3 side chain; on linkers, the order of the positions; unused ones are H or OH. Bridge positions count the residues as written; N and C are the ends. Side chains are listed from the residue outwards. Ends that are not written are not given here. * marks the point of attachment. C20 diacid = O=C(O)CCCCCCCCCCCCCCCCCCC(=O)*; γGlu = O=C(O)[C@H](CCC(=O)[*:2])N[*:1]

T1: rat calcitonin receptor (rat, UniProt P32214 25-516)
T1 construct: whole, on cells; Cell membranes of transiently transfected BHK tk'ts 13 cells (Assay VIII); also called rCTR; rCT
T1 sequence (looked up): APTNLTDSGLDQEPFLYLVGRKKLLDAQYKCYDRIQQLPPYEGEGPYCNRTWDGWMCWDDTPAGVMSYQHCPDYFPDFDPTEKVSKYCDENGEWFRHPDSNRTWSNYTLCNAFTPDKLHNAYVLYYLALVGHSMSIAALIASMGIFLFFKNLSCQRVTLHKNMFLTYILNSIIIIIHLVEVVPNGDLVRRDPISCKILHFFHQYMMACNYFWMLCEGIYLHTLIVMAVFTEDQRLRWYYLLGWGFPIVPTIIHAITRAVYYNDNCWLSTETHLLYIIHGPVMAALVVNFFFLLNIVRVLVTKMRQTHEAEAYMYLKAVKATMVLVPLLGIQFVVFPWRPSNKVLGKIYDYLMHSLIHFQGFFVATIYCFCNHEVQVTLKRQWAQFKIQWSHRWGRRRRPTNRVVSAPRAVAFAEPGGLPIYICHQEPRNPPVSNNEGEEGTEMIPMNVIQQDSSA

T2: human calcitonin receptor (human, UniProt P30988 25-474)
T2 construct: whole, on cells; Cell membranes of a stably transfected BHK cell line (Assay VII); also called hCTR; hCT
T2 sequence (looked up): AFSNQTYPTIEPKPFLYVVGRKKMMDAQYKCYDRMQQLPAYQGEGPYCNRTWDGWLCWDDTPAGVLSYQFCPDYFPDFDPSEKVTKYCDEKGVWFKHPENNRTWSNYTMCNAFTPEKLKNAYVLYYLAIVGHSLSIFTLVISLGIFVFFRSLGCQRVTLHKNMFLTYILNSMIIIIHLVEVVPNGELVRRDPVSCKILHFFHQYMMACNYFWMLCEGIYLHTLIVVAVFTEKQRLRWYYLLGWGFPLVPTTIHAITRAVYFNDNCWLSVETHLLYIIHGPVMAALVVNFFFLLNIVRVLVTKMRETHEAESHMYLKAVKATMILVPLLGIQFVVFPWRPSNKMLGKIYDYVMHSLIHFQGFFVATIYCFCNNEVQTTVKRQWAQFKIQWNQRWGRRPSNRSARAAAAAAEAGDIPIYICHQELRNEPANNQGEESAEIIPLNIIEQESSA

T3: rat amylin receptor (rat calcitonin receptor + rat RAMP 3) (rat, UniProt P32214 25-516; Q9JJ73 23-147)
T3 construct: whole, on cells; Cell membranes of transiently transfected BHK tk'ts 13 cells (Assay VI); also called rAmylin-R; rat amylin 3(a) receptor
T3 sequence (looked up) 1: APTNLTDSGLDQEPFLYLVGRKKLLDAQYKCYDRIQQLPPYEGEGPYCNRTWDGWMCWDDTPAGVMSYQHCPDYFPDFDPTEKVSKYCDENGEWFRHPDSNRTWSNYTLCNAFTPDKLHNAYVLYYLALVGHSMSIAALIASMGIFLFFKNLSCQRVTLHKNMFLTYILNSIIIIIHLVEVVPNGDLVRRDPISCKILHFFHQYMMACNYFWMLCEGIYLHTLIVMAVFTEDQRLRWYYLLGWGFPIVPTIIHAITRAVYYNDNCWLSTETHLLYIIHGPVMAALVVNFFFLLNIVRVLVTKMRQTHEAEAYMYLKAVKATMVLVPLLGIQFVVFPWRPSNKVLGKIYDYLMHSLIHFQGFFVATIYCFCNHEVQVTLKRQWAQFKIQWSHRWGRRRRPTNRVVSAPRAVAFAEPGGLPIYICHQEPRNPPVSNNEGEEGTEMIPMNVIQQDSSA
T3 sequence (looked up) 2: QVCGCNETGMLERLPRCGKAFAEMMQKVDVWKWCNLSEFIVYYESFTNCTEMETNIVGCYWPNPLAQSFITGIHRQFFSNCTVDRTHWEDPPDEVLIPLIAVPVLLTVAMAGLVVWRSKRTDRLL


Key:
rat calcitonin receptor [1] = biological target: T1, rat calcitonin receptor; assay: SPA competition vs 125I-calcitonin, membranes with rat CTR (Assay VIII)
[2] = biological target: T2, human calcitonin receptor; assay: ratio IC50 human calcitonin receptor / IC50 human amylin receptor
Experimental: The resulting pellet was resuspended, homogenized and centrifuged (20.000 rpm, 15 min) in a buffer containing 20 mM Na-HEPES and 0.1 mM EDTA (pH 7.4, buffer 2). The resulting pellet was resuspended in buffer 2 and protein concentration was measured (BCA protein Assay, Pierce). The homogenate was kept cold during the whole procedure. The membranes were kept at −80° C. until use. The assay was performed in a 384 well Optiplate (PerkinElmer) in a total volume of 40 ul. Membranes were mixed with SPA beads. Final concentration of membranes 35 ng/μL final and SPA beads was 0.05 mg/well. Test-compounds were dissolved in DMSO and further diluted in assay buffer (50 mM Hepes, pH 7.4, 1 mM CaCl2, 5 mM MgCl₂, 0.1% OA and 0.02% Tween20). […] The final mixture was incubated with shaking at 400 rpm for 120 min at 25° C. prior to centrifugation (1500 rpm, 10 min). Samples were analyzed on TopCounter™ (Packard). The IC₅₀ was calculated using (one site binding competition analysis) GraphPad Prism5 as a measure of receptor affinity.
Membranes were prepared in the following way; the cells were rinsed with PBS and incubated with Versene for approximately 5 min before harvesting. The cells were flushed with PBS and the cell-suspension was centrifuged for 5 min at 1000 rpm. Cells were homogenized (Ultrathurrax) in a buffer containing 20 mM Na-HEPES and 10 mM EDTA (pH 7.4) and centrifuged at 20.000 rpm for 15 min. The resulting pellet was resuspended, homogenized and centrifuged (20.000 rpm, 15 min) in a buffer containing 20 mM Na-HEPES and 0.1 mM EDTA (pH 7.4, buffer 2). The resulting pellet was resuspended in buffer 2 and protein concentration was measured (BCA protein Assay, Pierce). The homogenate was kept cold during the whole procedure. The membranes were kept at −80° C. until use. Assay was performed in a 384 well Optiplate (PerkinElmer) in a total volume of 40 ul. Membranes were mixed with SPA beads.

[3] = biological target: T3, rat amylin receptor (rat calcitonin …); assay: SPA competition vs 125I-rat amylin, membranes with rat CTR + rat RAMP3 (Assay VI)
rat calcitonin receptor [4] = biological target: T1, rat calcitonin receptor; assay: ratio IC50 rat calcitonin receptor / IC50 rat amylin receptor

IC50 (rat calcitonin receptor [1]) | Ratio hCT/hAmylin binding [2] | IC50 [3] | Ratio rCT/rAmylin binding (rat calcitonin receptor [4]) | Binder
61.7 nM | 50.3 | 0.948 nM | 65.1 | K([γGlu-C20 diacid])CNTATCATQRLANFLRHSSPNFGAIPSSTNVGSKTY-NH2 (disulfide 2-7; N-terminus assumed; SMILES CC[C@H](C)[C@H](NC(=O)[C@H](C)NC(=O)CNC(=O)[C@H](Cc1ccccc1)NC(=O)[C@H](CC(N)=O)NC(=O)[C@@H]1CCCN1C(=O)[C@H](CO)NC(=O)[C@H](CO)NC(=O)[C@H](Cc1c[nH]cn1)NC(=O)[C@H](CCCNC(=N)N)NC(=O)[C@H](CC(C)C)NC(=O)[C@H](Cc1ccccc1)NC(=O)[C@H](CC(N)=O)NC(=O)[C@H](C)NC(=O)[C@H](CC(C)C)NC(=O)[C@H](CCCNC(=N)N)NC(=O)[C@H](CCC(N)=O)NC(=O)[C@@H](NC(=O)[C@H](C)NC(=O)[C@@H]1CSSC[C@H](NC(=O)[C@@H](N)CCCCNC(=O)CC[C@H](NC(=O)CCCCCCCCCCCCCCCCCCC(=O)O)C(=O)O)C(=O)N[C@@H](CC(N)=O)C(=O)N[C@@H]([C@@H](C)O)C(=O)N[C@@H](C)C(=O)N[C@@H]([C@@H](C)O)C(=O)N1)[C@@H](C)O)C(=O)N1CCC[C@H]1C(=O)N[C@@H](CO)C(=O)N[C@@H](CO)C(=O)N[C@H](C(=O)N[C@@H](CC(N)=O)C(=O)N[C@H](C(=O)NCC(=O)N[C@@H](CO)C(=O)N[C@@H](CCCCN)C(=O)N[C@H](C(=O)N[C@@H](Cc1ccc(O)cc1)C(N)=O)[C@@H](C)O)C(C)C)[C@@H](C)O, Acylated analogue of human amylin; also called compound 35) [N^ε1-[(4S)-4-carboxy-4-(19-carboxynonadecanoylamino)butanoyl]-[Arg17,Pro21,Pro27,Lys35]-h-amylin]
60.1 nM | 15.7 | 1.86 nM | 32.4 | {C20 diacid-γGlu}-KCNTATCATQRLAEFLRHSSPNFGAIPSSTNVGKNTY-NH2 (disulfide 2-7; SMILES CC[C@H](C)[C@H](NC(=O)[C@H](C)NC(=O)CNC(=O)[C@H](Cc1ccccc1)NC(=O)[C@H](CC(N)=O)NC(=O)[C@@H]1CCCN1C(=O)[C@H](CO)NC(=O)[C@H](CO)NC(=O)[C@H](Cc1c[nH]cn1)NC(=O)[C@H](CCCNC(=N)N)NC(=O)[C@H](CC(C)C)NC(=O)[C@H](Cc1ccccc1)NC(=O)[C@H](CCC(=O)O)NC(=O)[C@H](C)NC(=O)[C@H](CC(C)C)NC(=O)[C@H](CCCNC(=N)N)NC(=O)[C@H](CCC(N)=O)NC(=O)[C@@H](NC(=O)[C@H](C)NC(=O)[C@@H]1CSSC[C@H](NC(=O)[C@H](CCCCN)NC(=O)CC[C@H](NC(=O)CCCCCCCCCCCCCCCCCCC(=O)O)C(=O)O)C(=O)N[C@@H](CC(N)=O)C(=O)N[C@@H]([C@@H](C)O)C(=O)N[C@@H](C)C(=O)N[C@@H]([C@@H](C)O)C(=O)N1)[C@@H](C)O)C(=O)N1CCC[C@H]1C(=O)N[C@@H](CO)C(=O)N[C@@H](CO)C(=O)N[C@H](C(=O)N[C@@H](CC(N)=O)C(=O)N[C@H](C(=O)NCC(=O)N[C@@H](CCCCN)C(=O)N[C@@H](CC(N)=O)C(=O)N[C@H](C(=O)N[C@@H](Cc1ccc(O)cc1)C(N)=O)[C@@H](C)O)C(C)C)[C@@H](C)O, Acylated analogue of human amylin; also called compound 36)
135 nM | 27.6 | 1.3 nM | 104 | K([γGlu-γGlu-C20 diacid])CNTATCATQRLADFLRHSSPNFGAPLSSTNVGSDTY-NH2 (disulfide 2-7; N-terminus assumed; SMILES CC(C)C[C@H](NC(=O)[C@H](CCCNC(=N)N)NC(=O)[C@H](CCC(N)=O)NC(=O)[C@@H](NC(=O)[C@H](C)NC(=O)[C@@H]1CSSC[C@H](NC(=O)[C@@H](N)CCCCNC(=O)CC[C@H](NC(=O)CC[C@H](NC(=O)CCCCCCCCCCCCCCCCCCC(=O)O)C(=O)O)C(=O)O)C(=O)N[C@@H](CC(N)=O)C(=O)N[C@@H]([C@@H](C)O)C(=O)N[C@@H](C)C(=O)N[C@@H]([C@@H](C)O)C(=O)N1)[C@@H](C)O)C(=O)N[C@@H](C)C(=O)N[C@@H](CC(=O)O)C(=O)N[C@@H](Cc1ccccc1)C(=O)N[C@@H](CC(C)C)C(=O)N[C@@H](CCCNC(=N)N)C(=O)N[C@@H](Cc1c[nH]cn1)C(=O)N[C@@H](CO)C(=O)N[C@@H](CO)C(=O)N1CCC[C@H]1C(=O)N[C@@H](CC(N)=O)C(=O)N[C@@H](Cc1ccccc1)C(=O)NCC(=O)N[C@@H](C)C(=O)N1CCC[C@H]1C(=O)N[C@@H](CC(C)C)C(=O)N[C@@H](CO)C(=O)N[C@@H](CO)C(=O)N[C@H](C(=O)N[C@@H](CC(N)=O)C(=O)N[C@H](C(=O)NCC(=O)N[C@@H](CO)C(=O)N[C@@H](CC(=O)O)C(=O)N[C@H](C(=O)N[C@@H](Cc1ccc(O)cc1)C(N)=O)[C@@H](C)O)C(C)C)[C@@H](C)O, Acylated analogue of human amylin; also called compound 1)
108 nM | 47.5 | 0.295 nM | 366 | K([γGlu-γGlu-C20 diacid])CNTATCATQRLADFLRHSSPNFGAIPSSTNVGSDTY-NH2 (disulfide 2-7; N-terminus assumed; SMILES CC[C@H](C)[C@H](NC(=O)[C@H](C)NC(=O)CNC(=O)[C@H](Cc1ccccc1)NC(=O)[C@H](CC(N)=O)NC(=O)[C@@H]1CCCN1C(=O)[C@H](CO)NC(=O)[C@H](CO)NC(=O)[C@H](Cc1c[nH]cn1)NC(=O)[C@H](CCCNC(=N)N)NC(=O)[C@H](CC(C)C)NC(=O)[C@H](Cc1ccccc1)NC(=O)[C@H](CC(=O)O)NC(=O)[C@H](C)NC(=O)[C@H](CC(C)C)NC(=O)[C@H](CCCNC(=N)N)NC(=O)[C@H](CCC(N)=O)NC(=O)[C@@H](NC(=O)[C@H](C)NC(=O)[C@@H]1CSSC[C@H](NC(=O)[C@@H](N)CCCCNC(=O)CC[C@H](NC(=O)CC[C@H](NC(=O)CCCCCCCCCCCCCCCCCCC(=O)O)C(=O)O)C(=O)O)C(=O)N[C@@H](CC(N)=O)C(=O)N[C@@H]([C@@H](C)O)C(=O)N[C@@H](C)C(=O)N[C@@H]([C@@H](C)O)C(=O)N1)[C@@H](C)O)C(=O)N1CCC[C@H]1C(=O)N[C@@H](CO)C(=O)N[C@@H](CO)C(=O)N[C@H](C(=O)N[C@@H](CC(N)=O)C(=O)N[C@H](C(=O)NCC(=O)N[C@@H](CO)C(=O)N[C@@H](CC(=O)O)C(=O)N[C@H](C(=O)N[C@@H](Cc1ccc(O)cc1)C(N)=O)[C@@H](C)O)C(C)C)[C@@H](C)O, Acylated analogue of human amylin; also called compound 2)
